# Laboratory results from patent US12410262B2, “Peptide conjugates of cytotoxins as therapeutics” (Cybrexa 2, Inc., priority 2019, dated 2025).
# Columns and labels:
# HCT116 = assay: cells; assay type: cell-based, human; conditions: 96 h
# Summary of the method: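 DLD-1 WT (2500/well), FaDu and HeLa (5000/well) and HCT116 (3000/well) were grown in 10% FBS media and dosed in triplicate 24 h after plating. After 96 h of drug exposure at 37 °C, cells were fixed, Hoechst-stained and counted by imaging; percent growth delay was calculated versus untreated controls.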
# [1] = Plasma pharmacokinetics of Compound 11 in a rat model; assay type: in vivo, Sprague Dawley rats; conditions: single IV dose 5 mg/kg
# Method: Male Sprague Dawley rats underwent jugular vein cannulation and insertion of a vascular access button (VAB, Instech Labs Cat #VABR1B/22) at Envigo Labs prior to shipment. Magnetic, aluminum caps (Instech Labs Cat #Cat #VABRC) were used to protect the access port for the jugular catheters allowing the animals to be housed 2 per cage on corn cob bedding for 4-5 days prior to the study. Rats were administered a single intravenous dose of 5 mg/kg Compound 11 prepared in a vehicle of 5% mannitol in citrate buffer. At 1, 2, 4, 8, 24 and 30 hours following compound administration, blood (250 μL) was collected into K2EDTA filled microtainers from fed rats. Plasma was isolated by centrifugation and 100 μL aliquots were transferred to 96-well polypropylene plates on dry ice. Samples were stored at −80° C. until processed for quantification of total peptide by ELISA and released exatecan by LC-MS/MS.
# 96-Well plates were coated with 100 μL/well of 0.1 μM BSA-labelled peptide prepared in 0.2 M Carbonate-Bicarbonate Buffer, pH 9.4 and incubated overnight at 4° C. […] Luminescence was read from the plate on a BioTek Cytation 5 plate reader.
# For quantification of exatecan, a 20 μL plasma sample was added to a polypropylene autosampler vial. […] The samples were centrifuged for 5-10 minutes at 3700 rpm then analyzed via liquid chromatography tandem mass spectrometry (LC-MS/MS).
# HCT116 xenografts = assay: Tumor and bone marrow pharmacokinetics in a mouse model; assay type: in vivo, athymic nude Foxn^nu mice; conditions: mouse bearing HCT116 xenograft, single IP dose 10 mg/kg
# Method: Six-week-old female athymic nude Foxn^nu mice were obtained from Taconic Labs (Cat #NCRNU-F) and were housed 5 per cage on Alpha-Dri bedding in a disposable caging system (Innovive). Human HCT116 cancer cells derived from colorectal carcinoma were diluted 1:1 in Phenol Red-free Matrigel and subcutaneously implanted into the left flank of each mouse at a density of 2.5×10^6 cells in 100 μL. When xenografts reached a minimal volume of 300 mm^3, mice were administered a single intraperitoneal injection of 10 mg/kg Compound 11 prepared in a vehicle of 5% mannitol in citrate. Tumor and bone marrow samples were collected from fed, anesthetized mice at 1, 2, 4, 8, 16, 24, 32 and 48 hours after compound administration. Total peptide concentrations in tumor and bone marrow were determined via ELISA.
# 96-well plates were coated with 100 μL/well of 0.1 μM BSA-labelled peptide prepared in 0.2 M Carbonate-Bicarbonate Buffer, pH 9.4 and incubated overnight at 4° C. Plates were washed 4× with an ELISA wash buffer (PBS+0.05% Tween 20), incubated for 2 hours at room temperature with Blocking Buffer (PBS+5% dry milk+0.05% Tween 20) (300 μL/well) and washed again 4× with ELISA wash buffer. […] Luminescence was read from the plate on a BioTek Cytation 5 plate reader.
compound,measurement,setting,value
CC[C@@]1(O)C(=O)OCc2c1cc1n(c2=O)Cc2c-1nc1cc(F)c(C)c3c1c2[C@@H](NC(=O)O[C@H]1CCCC[C@@H]1SSC[C@H](NC(=O)[C@H](Cc1c[nH]c2ccccc12)NC(=O)[C@H](CC(C)C)NC(=O)[C@H](CC(C)C)NC(=O)[C@H](CC(=O)O)NC(=O)[C@H](CC(C)C)NC(=O)[C@H](CC(C)C)NC(=O)[C@H](CC(C)C)NC(=O)[C@@H](NC(=O)[C@H](CC(=O)O)NC(=O)[C@@H](NC(=O)[C@@H]1CCCN1C(=O)[C@H](Cc1ccccc1)NC(=O)[C@H](CC(C)C)NC(=O)[C@H](CC(C)C)NC(=O)[C@H](CC(=O)O)NC(=O)[C@H](CC(C)C)NC(=O)[C@H](Cc1ccc(O)cc1)NC(=O)[C@H](C)NC(=O)[C@H](CCCNC(=N)N)NC(=O)[C@H](Cc1c[nH]c2ccccc12)NC(=O)[C@@H]1CCCN1C(=O)[C@H](CC(N)=O)NC(=O)[C@H](CCC(N)=O)NC(=O)[C@H](CC(=O)O)NC(=O)[C@H](CC(=O)O)NC(=O)[C@H](C)N)[C@@H](C)O)[C@@H](C)O)C(=O)NCC(=O)O)CC3 [Compound 11],IC50,HCT116,22.6 nM
same,stable in plasma,[1],at least 30 h
same,exatecan warhead released in circulation,[1]; after 30 h,less than 0.002%
same,peptide concentration in tumor and bone marrow (tumor targeting),HCT116 xenografts,effectively targets tumors
